This note sets out measurements from publication doi:10.1101/2023.01.25.525455 (bioRxiv, 2023).

Values joined by “and” are separate entries in the source; they are usually repeats but may differ in a detail not shown here. Identical values can stand only once.

In one experiment the target is recombinant DENND10 (human, UniProt Q8TCE6 1-357). The experiment in a line: ITC.
Another experiment has as its target purified VPS29 (human, UniProt Q9UBQ0 1-182). The experiment in a line: ITC.

Chain of recombinant DENND10 (Q8TCE6 whole entry): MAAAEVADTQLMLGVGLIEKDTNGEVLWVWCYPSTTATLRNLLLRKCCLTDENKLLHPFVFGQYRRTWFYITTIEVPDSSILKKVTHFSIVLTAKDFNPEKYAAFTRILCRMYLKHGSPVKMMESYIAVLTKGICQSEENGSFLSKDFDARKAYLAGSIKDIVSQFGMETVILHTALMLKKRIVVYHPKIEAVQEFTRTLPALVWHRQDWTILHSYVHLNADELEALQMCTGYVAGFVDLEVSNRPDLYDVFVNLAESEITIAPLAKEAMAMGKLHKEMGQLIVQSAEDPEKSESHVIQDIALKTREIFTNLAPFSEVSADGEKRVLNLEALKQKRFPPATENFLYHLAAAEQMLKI

B1: CCDC22-CCDC93 CC1-CC2 complex (CCDC22(325-485) + CCDC93(310-488)), wild type (complex)
chain 1: VTWAAQEQELESLREQLEGVNRSIEEVEADMKTLGVSFVQAESECRHSKLSTAEREQALRLKSRAVELLPDGTANLAKLQLVVENSAQRVIHLAGQWEKHRVPLLAEYRHLRKLQDCRELESSRRLAEIQELHQSVRAAAEEARRKEEVYKQLMSELETLP
chain 2: GTSQLHRRKVISLNKQIAQKTKHLEELRASHTSLQARYNEAKKTLTELKTYSEKLDKEQAALEKIESKADPSILQNLRALVAMNENLKSQEQEFKAHCREEMTRLQQEIENLKAERAPRGDEKTLSSGEPPGTLTSAMTHDEDLDRRYNMEKEKLYKIRLLQARRNREIAILHRKIDEV
With B1, in the experiment with recombinant DENND10, the Kd (in general, the concentration at which binding is half-saturated) was 28 ± 6 nM.

B2: synthetic VPS35L peptide (residues Glu16-Ile38) (peptide)
peptide: EFASCRLEAVPLEFGDYHPLKPI
Turning to B2, the Kd with purified VPS29 is 1800 nM and 1870 nM.

B3: VPS35L^28-37 peptide (peptide)
peptide: EFGDYHPLKP
B3 displayed a Kd in the experiment with purified VPS29 of 6800 nM.
